Results reported in the DeepSol protein solubility set.

Experiment: soluble on expression in E. coli; label from the status in PepcDB or PDB records

Sequence | soluble on expression in E. coli
SLASELHQTQVDLDGLLEVLGRNLYSTPAVAIRELIQNAHDACVRSRLETGRDGDFSIRIQADSHRNQIVITDNGSGLTYEEVLKYLATIGSGYTRVLRDSSHNEDMVGYFGLGFLSAYVVAEKVEVWTTSYQTPEQTWYFSTAGGKKFAISATAPAQVGTTVKLHLREEFYHLAESDLLQGLIERYCCLLRVPIFLNNDDVQVNNLVAPWRLDAATSELQRKKRRLEFAAIFEGAFEPLCAIPIPENNPWSLKGLLWVQDRGGYATSDYRNISVFVRSMFITGECRELLPLWAGFAGGVVESVALSPTASREDIQKNERFYEIRDFLAETLIEGLRTIAANESSVWRRILSRHNQTLLGAALSDDRLFEVMQNDLKIPTTIGDVTLPAYLKQSGGVIYIRNEDKNSQEELLFRAQMKPLVSGYLYAASGFCQKYAHWNHLKAHILGSGDGETKLFTEETVDKAIHDKLAALLLRKNEALSCARFEPAHVPLLVIHDQDVALKKRIERDEADKRIGSAALSLARLHTQAISAEIERRLYVNLNSPLIAAMIDGTQEAAGHLAVAVRAYMESLTHQVDDSDSNFSDELKRFSDALLAITKGEEG | soluble
MNSFYSQEELKKIGFLSVGKNVLISKKASIYNPGVISVGNNVRIDDFCILSGKVTIGSYSHIAAYTALYGGEVGIEMYDFANISSRTIVYAAIDDFSGNALMGPTIPNQYKNVKTGKVILKKHVIIGAHSIIFPNVVIGEGVAVGAMSMVKESLDDWYIYVGVPVRKIKARKRKIVELENEFLKSMNSLEHHHHHH | not soluble
MGSDKIHHHHHHMKIALIATEKLPVPSVRGGAIQIYLEAVAPLIAKKHEVTVFSIKDPNLADREKVDGVHYVHLDEDRYEEAVGAELKKSRFDLVHVCNRPSWVPKLKKQAPDAVFILSVHNEMFAYDKISQAEGEICIDSVAQIVTVSDYIGQTITSRFPSARSKTKTVYSGVDLKTYHPRWTNEGQRAREEMRSELGLHGKKIVLFVGRLSKVKGPHILLQALPDIIEEHPDVMMVFIGSKWFGDNELNNYVKHLHTLGAMQKDHVTFIQFVKPKDIPRLYTMSDVFVCSSQWQEPLARVHYEAMAAGLPIITSNRGGNPEVIEEGKNGYIIHDFENPKQYAERINDLLSSSEKRERLGKYSRREAESNFGWQRVAENLLSVYEKNR | not soluble
EPAQVRLLSSDFVLPGKHQRLAGWAREAGVELRGLRLGIGEAPPGEWLDGGNLLILDTPRPTDRAQVEEALGERLQGGTQPWIRVGGGPPGFGNLPAALGGRLVGYYANGGEANLRRLFEAVRRWHAGLTVDALPAPQPLAQAGFYHPDAPAPFAVLADYLAWGASRWASDAPRIAFLIPRGAIADAQTGAIDELLRRSERHGQAPLAVWFDDSDPEALRKSFAGADVQALVNLQHLQNGPARRAEFLALDVPVLQTLGYRDGNEADWLAAASGVAPRTAAAFLGMPETWGMSDPLVISALENGEPKLMAGQAEALLDKLDRLLRLRRLPAADKHLALMFWNHPEGEKNVAASHLNVPASLARLGEALRAAGYRVATSDESALIDTAQRLLGGYYRPQTLDALYRDGLAASLPLDAYLHWFEALPADLREEMRARWGDPRRHWALRDIDGQRRFVFPAARLGNLLLLPQPPRAGRPGEAYHDSAVPPDHLYLAVYQFVREGFGADALIHFGTHGTQEWLPGKDRGLAVGDYPLRALGDLPVFYPYIQDNVGEAIQARRRGRAVTVSHQTPSFAPAGLYDELRDLHQLIHEYQQLDEGAVRERSAEQIRAAVRAAHMNDDLGWSEAAMHEDFPAFLGVLHDHLHRLAGSAMPLGLHTFGVAASPELRLGTVMQQLGEPYYRALGLDPDELFAADFRALREGRAYRTLQRYLRDGGEIAKVADPRLREQLLRARELDRQLADTGELEALLAGLAGRFVAPGPGGDPIRNPQVPSGRNLFAFEADKVPTRAAYEAGAEAFGQLLESYRAEHQGRAPEKLAFSLWSSETMRHLGIVESQALHALGLRPRWDAGGRLLALDIVPAAELGRPRVDVVLQVTSVYRDQFDGFMRLLAEAIERLAALDEPGNPLARNSQALERRLRERGVEAPLAQRLSRLRLFGNAPGDYGTGVTQLTLDSTRWDDDSALAEQFLGRLQYAYGSRDWGVKLDGGNLFAEQLKGVQAAILSRSSTLNGVLSTDHPFEYLGGLSLAVRHLDGASPALYIADLRQRQPRTTAAAQFLASELRGRYLSPQWIAAMQREGYAGSLEMLDLANNLWGWQAADRIMVRADQWQALHDTFVMDRRELGLAEWFETHNPTAQAQIIARMAEAIRKGYWDASEQTRRELAERWRQLAAAGAGEVGAATTREFIERMAGGFGEAAAQAEGAAASGAGETVSGRVLEEVAPPPSGEPQ | not soluble
MINFEATELRLGLPGGNHGGEMAGKNNGKRGFSETVDLKLNLSSTAMDSVSKVDLENMKEKVVKPPAKAQVVGWPPVRSFRKNVMSGQKPTTGDATEGNDKTSGSSGATSSASACATVAYVKVSMDGAPYLRKIDLKLYKTYQDLSNALSKMFSSFTIGNYGPQGMKDFMNESKLIDLLNGSDYVPTYEDKDGDWMLVGDVPWEMFVDSCKRIRIMKGSEAIGLAPRALEKCKNRS | soluble
MNSNMVFARVNEADVTEAILDGFYSSLKKHLRSDVIVVGAGPAGLTAAWRLAEAGARVLIVEQNNYLGGGLWLGGYFMNPVTIRAPAQRILDELEVPYEAVKPGLYRTKGPLLAAKLAARALEAGAEVLNLTMLDDVIVENSRVAGVVVNWSPVQGLPRQITCVDPVGLRAEYVVDATGHDAVVTRKLAERGMVEASKLGPMWVERSEDLVVEKTGEVYPGLVVAGIAVAEVYGLPRMGPTFGAMLLSGEKAAALIGEKLGLKVKVAAAPASQA | soluble
MKLPVREFDAVVIGAGGAGMRAALQISQSGQTCALLSKVFPTRSHTVSAQGGITVALGNTHEDNWEWHMYDTVKGSDYIGDQDAIEYMCKTGPEAILELEHMGLPFSRLDDGRIYQRPFGGQSKNFGGEQAARTAAAADRTGHALLHTLYQQNLKNHTTIFSEWYALDLVKNQDGAVVGCTALCIETGEVVYFKARATVLATGGAGRIYQSTTNAHINTGDGVGMAIRAGVPVQDMEMWQFHPTGIAGAGVLVTEGCRGEGGYLLNKHGERFMERYAPNAKDLAGRDVVARSIMIEIREGRGCDGPWGPHAKLKLDHLGKEVLESRLPGILELSRTFAHVDPVKEPIPVIPTCHYMMGGIPTKVTGQALTVNEKGEDVVVPGLFAVGEIACVSVHGANRLGGNSLLDLVVFGRAAGLHLQESIAEQGALRDASESDVEASLDRLNRWNNNRNGEDPVAIRKALQECMQHNFSVFREGDAMAKGLEQLKVIRERLKNARLDDTSSEFNTQRVECLELDNLMETAYATAVSANFRTESRGAHSRFDFPDRDDENWLCHSLYLPESESMTRRSVNMEPKLRPAFPPKIRTY | soluble
MSQIISTLNNIDLVTQDKVNLISNMQIQAKYENAEYKSFIDQLIDNLNTTRSIDIYNLFLSLNSEICLNLDTVDNISKIISSYLSILNTNFTRISPSESKQKNQLAEKGINKFLVTMDANFAQMQNQDKLLPNNIDSIIEIVQEVIIFFEKNNLNYNSDFKIQLNKTLRKIKSSLILKDQKNDTYSDKESINQVEATITDQKTIQGSEKWKTLIEKIEVLKALVESERIFETSIVYNDIQNLLVNFDPKEYFPEIFFPLYKKIAPFIGNIHKNIDYYSSSIQWSIAQKMYNIDYKSFLDTLEKMPENNFLNSSSDITKNFFYETSSEVEKTPIEEHKIIADTDAIKEEIVIKQRTNNKKNQNDPVEKISNKIDEDYFEDLFDI | not soluble
MGSDKIHHHHHHMSHANQAIPLDEEAIFDAMPMEEEGQFANHATPLIRNCWYVCARRDEVGRTPISRRLLDTDVVMYRTRDGRPVAMHNRCPHRAFPLAKGHVEGDRLVCGYHGMQFEPDGLCAHLPAISHVPANACVQTYPIADRGPLTWIWMGDANLADEALIPELPWLASSEWGSVTGDFHIKADYVSMHENLIDQTHFPFLHPGTVGTPEYARASMNATTEGDQVLIHRRLDNAPPPGIYGKPADIMHKNVDRTSEARFVSPAVHMAHARIFDPQPEPGKPSVYGYYITHCFTPESNHSIHYWWFNSRDYGIDDTDIDAFMYEASMQAYYEDVEALEWIMDVVLTDNEAQQFELSFAPDKPGLMARRIMHRLAMSERG | not soluble
MMWIPYNQGFHAGPKCLTVVFIYLLNMKVLRHIYRFLMELYGPQGWWPLLDRDTMTLRYHPGDYTPPSDDGDVFEVITGSILTQNTSWDSAASALRNLAAMDALKPHRILSLDDAELEAAIRCAGFYRQKVSYLREMAGFFISLEGSTPSRKELLKVRGVGPETADSVLLYAYRKPEFVVDAYTRRILTHLGLIAGDESYHRIKELFERSLEPDFRVFQEYHALIVRHGKSYYRGRVHGDGDPLTEKLEHHHHHH | not soluble
MTESSLDLGVIGNCSFGALVDRQARVVWSCLPAFDGDPAFCSLLSPKGEGGDFAVELEDFESSEQHYLPNTAVLRTVLRDSKGGEVEVIDFAPRWRNNGRFYRPVSIIRQIRPLAGNPRIVVRARPLADWGGRLEHHHHHH | not soluble
MGSDKIHHHHHHMDITPFLNRTLDIPLYQQLYRYFKENMHRGRIQKGMKLPSKRLLANQLSISQTTVERAYEQLAAEGYIVSKPRSGWFADYHDSDFAYDRMPSTTPIQQEAEENKQWIDFHYGNVDSSYFPFSAWRKSMVNSLDQYGHELYRPGHVLGEFELRTLIAEYLYQSRGVHCGPEQVIIGAGNPILLQILCQVFEPNISIGYEDPGYPRARKIFEANRMNIVPIPVDDEGICIQKIKEQQPNLVYVTPSHQFTLGTIMTINRRIQLLKWAAENQSFIIEDDYDGEFRYTGQPVPSLQGLDQHNRVIYMGTFSKSLLPSLRISYMILPSPLLKKGHEITSLYKQTVSCHSQLTLAEFIKNGEWQKHINRMRKLYRKKRAIVLEAVQRELGEHVRIRGENSGLRILLDVYLPFGEKELIEKAKKHGVKIYPVSLSYQHHPPTKTVSLGFAGVSESDIREGIKKLKAAWKI | not soluble
MRLNHKQGTAGEDAALAFLQSQGCTLLARNWHCAYGEIDLIVKNGGMILFVEVKYRKNQRFGGAAYSISPSKLLKLQRSVEYYLQQNRLTNVPCRLDAVLIEGNRPPEWIKNITG | soluble
MPLSTSDNIAAVIVTHKRVELLRASLEVVAAQTHPVKWIIVVDNGCEDAVRDLLHSVAGDRGIYLPSHTNLGGAGGFAYGFLTALALGADAIWCADDDGRPEGPQVLATLIDAAVTHQLDEVSPVVCNMDDPNRLAFPLRRGLEWRRYRSELIDPNNPSDTLLPGIASLFNGALISAAAMERIGVPDLRLFIRGDEVEYHRRLVRSGLNFGTCLTTAYLHPDGSDEFKPILGGRMHTQYPASDAKRYFTYRNRGYLMNQPGMRRLLPQEYARFAWFFLIQRRDPRGFLEWFKLHQLGRSEKFERPLEHHHHHH | not soluble
MGLIKTIGRKPSVQWALSHLASGYLRLVRRTNRFTLEPADAYARLDAFGPFIAAMWHGQHIMISFMSRPQDRVATIISRSPDGNINTMALTRMGVRVMRASGARGRAVKDARAKGGAEGLRAMVKALKGGETVAFSADVPKVSRVCDAGIILLARFSGAPIVPVAVVTSRHIRFNSWDRACLGLPFGRGAMVFGEATFVPREVTPEEVDALRQRVQDELNRVHDRAYTLVGLEHHHHHH | soluble
GKITFYEDRGFQGHCYESSSDCPNLQPYFSRCNSIRVDSGCWMLYERPNYQGHQYFLRRGDYPDYQQWMGFNDSIRSCRLIPQHTGTFRMRIYERDDFRGQMSEITDDCPSLQDRFHLTEVHSLNVLEGSWVLYEMPSYRGRQYLLRPGEYRRYLDWGAMNAKVGSLRRVMDFY | soluble
MSLGSRKKFGATYMTTNNRFYEIINDEIRSVVESNGDILVTRDAALDKNKQMQQIYEFIKLKVKAIFINPVDWKQIKPALIAAKNAGIPVIVVDTPVYDDKLVACTVISDNYDAGVQCAKYLMKSKSKANIMLIEHSKAKSGIDRIKGFVDTIGASKQYKIVAAGDSEGQLDKTMSLVDDLIKKHTNVDAIMALNDPSALGALAALKENGLLGKVMVFGVDGSPEAKTMIHDGFMTATSAQFPNKIGHIAAEKAYDILKGKRLKRDVIVPISLISKENLLKYEISGWKEGHHHHHH | soluble
